From patent publication US20260116958A1 (University of California, published 2026)

T1: active BoNT/G holotoxin (Clostridium botulinum, UniProt Q60393 2-1297)
T1 sequence: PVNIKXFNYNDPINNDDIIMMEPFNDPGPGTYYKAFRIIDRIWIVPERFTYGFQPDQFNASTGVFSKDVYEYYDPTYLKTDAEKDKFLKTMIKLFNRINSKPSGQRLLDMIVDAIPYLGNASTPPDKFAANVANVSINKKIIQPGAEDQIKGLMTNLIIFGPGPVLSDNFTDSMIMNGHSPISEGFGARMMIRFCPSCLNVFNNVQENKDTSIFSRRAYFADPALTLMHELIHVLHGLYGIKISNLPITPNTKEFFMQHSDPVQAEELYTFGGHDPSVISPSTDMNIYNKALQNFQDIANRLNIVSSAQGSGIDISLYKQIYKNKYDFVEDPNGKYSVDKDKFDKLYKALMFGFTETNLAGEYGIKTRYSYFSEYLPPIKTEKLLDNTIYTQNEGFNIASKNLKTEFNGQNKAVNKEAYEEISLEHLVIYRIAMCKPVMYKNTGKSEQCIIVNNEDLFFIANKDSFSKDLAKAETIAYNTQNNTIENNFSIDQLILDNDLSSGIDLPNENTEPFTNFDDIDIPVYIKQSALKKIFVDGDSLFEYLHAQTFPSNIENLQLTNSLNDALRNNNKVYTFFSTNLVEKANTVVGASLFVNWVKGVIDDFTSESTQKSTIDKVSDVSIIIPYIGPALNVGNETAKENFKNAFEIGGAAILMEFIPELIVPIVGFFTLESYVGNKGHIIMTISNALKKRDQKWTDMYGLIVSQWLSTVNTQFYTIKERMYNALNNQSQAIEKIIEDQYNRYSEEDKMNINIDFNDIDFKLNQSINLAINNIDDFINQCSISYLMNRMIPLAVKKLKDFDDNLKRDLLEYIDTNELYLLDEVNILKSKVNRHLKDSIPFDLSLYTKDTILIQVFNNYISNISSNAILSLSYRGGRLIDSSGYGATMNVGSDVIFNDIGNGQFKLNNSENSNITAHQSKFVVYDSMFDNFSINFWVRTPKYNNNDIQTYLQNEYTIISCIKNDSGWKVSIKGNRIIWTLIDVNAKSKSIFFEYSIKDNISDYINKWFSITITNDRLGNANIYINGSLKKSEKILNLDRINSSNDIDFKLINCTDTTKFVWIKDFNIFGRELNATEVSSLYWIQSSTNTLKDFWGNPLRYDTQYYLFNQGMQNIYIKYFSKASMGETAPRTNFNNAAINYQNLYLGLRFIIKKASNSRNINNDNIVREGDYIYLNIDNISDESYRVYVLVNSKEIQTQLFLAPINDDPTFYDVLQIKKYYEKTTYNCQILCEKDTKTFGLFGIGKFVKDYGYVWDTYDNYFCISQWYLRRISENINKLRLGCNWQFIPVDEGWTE

T2: inactive BoNT/G (BoNT/Gi) (Clostridium botulinum, UniProt Q60393 1-1297)
T2 sequence: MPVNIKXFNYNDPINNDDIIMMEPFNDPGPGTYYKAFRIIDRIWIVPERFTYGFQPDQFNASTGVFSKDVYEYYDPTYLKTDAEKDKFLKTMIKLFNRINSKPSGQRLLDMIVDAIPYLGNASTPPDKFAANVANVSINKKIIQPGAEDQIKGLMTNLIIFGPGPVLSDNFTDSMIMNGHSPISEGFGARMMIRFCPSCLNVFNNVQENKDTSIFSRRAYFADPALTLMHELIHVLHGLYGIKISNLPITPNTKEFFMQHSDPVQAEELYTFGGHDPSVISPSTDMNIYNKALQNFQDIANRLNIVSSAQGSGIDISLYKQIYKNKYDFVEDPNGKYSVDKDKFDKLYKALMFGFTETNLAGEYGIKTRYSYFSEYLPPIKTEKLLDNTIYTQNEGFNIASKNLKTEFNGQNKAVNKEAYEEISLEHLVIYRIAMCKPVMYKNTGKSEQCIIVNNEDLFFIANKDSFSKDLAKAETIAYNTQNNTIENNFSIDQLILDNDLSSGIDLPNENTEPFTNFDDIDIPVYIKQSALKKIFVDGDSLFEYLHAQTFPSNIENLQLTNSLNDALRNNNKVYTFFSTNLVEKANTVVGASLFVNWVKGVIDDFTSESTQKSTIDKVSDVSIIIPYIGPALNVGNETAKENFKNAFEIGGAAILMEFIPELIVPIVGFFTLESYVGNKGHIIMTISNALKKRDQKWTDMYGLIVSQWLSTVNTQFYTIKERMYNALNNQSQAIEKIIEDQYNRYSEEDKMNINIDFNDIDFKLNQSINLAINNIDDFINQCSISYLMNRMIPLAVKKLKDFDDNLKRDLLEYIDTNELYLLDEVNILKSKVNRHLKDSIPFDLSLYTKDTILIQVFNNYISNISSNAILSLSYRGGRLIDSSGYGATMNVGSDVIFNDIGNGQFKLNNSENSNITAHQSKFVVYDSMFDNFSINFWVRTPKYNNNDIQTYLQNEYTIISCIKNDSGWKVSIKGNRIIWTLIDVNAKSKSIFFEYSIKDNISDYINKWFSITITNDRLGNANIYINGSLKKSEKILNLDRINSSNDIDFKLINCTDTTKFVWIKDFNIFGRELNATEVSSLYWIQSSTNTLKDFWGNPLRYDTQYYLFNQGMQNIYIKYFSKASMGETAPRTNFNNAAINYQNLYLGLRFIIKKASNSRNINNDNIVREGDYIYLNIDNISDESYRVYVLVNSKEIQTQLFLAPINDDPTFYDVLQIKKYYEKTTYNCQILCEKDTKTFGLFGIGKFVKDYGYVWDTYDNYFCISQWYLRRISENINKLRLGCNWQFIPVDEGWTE


How the values were obtained:
active BoNT/G holotoxin = molecular target: T1, active BoNT/G holotoxin; assay: KinExA, IgG
[1] = molecular target: T2, inactive BoNT/G (BoNT/Gi); assay: FACS, scFv on yeast

| Binder | Kd (active BoNT/G holotoxin) [nM] | Kd [1] [nM] |
| --- | --- | --- |
| 6G7.1 IgG (antibody, V domains shown) VH: DVQLQESGPELVKPGASVKVSCKASDYSFTDYNIYWVKQSHGKSLEWIGYIDPYNGGTSYNQKFKGKATLTVDKSSSTAFMYLNSLTSEDSAVYYCALYGYDPDYIDYWGQGTTLTVSS VL: QIVLTQSPAIMSASPGEKVTITCSASSSVSYLHWFQQKPGTSPKLWIYSTSNLASGVPARFSGSGSGTSYSLTISRMEAEDAATYYCQQRSSYPYTFGGGTKLEIKA | 0.0266 | – |
| 6G9 IgG (antibody, V domains shown) VH: EVQLQQSGDDLVKPGASVKMSCKASGYTFTSYWMHWVKQRPGQGLEWIGYINPSTGYTEYNQKFKDKATLTADKSSSTAYMQLSSLTSEDSAVYYCARGGNYVDYWGQGTTLTVSS VL: EIVLTQSPAIMSASPGEKVTISCSASSSVSYMYWYQQKPGSSPKPWIYRTSNLASGVPARFSGSGSGTSYSLTISSMEAEDAATYYCQQWSSNPYTFGGGTKLEIKR | 1.59 | – |
| 6G10 IgG (antibody, V domains shown) VH: EVQLQQSGPELVKPGASVKISCKASGYSFTGYFMHWVKQSHVKSLEWIGRINPYNGDIIYNQNFKDKASLTVDKSSSTAYMELHSLTSEDSAVYYCASLFGLYYFDYWGQGTTLTVSS VL: EIVLTQSPAIMSASPGEKVTMTCSASSSVSYMHWYQQKSGTSPKRWIYDTSKLASGVPARFSGSGSGTSYSLTISSMEAEDAATYYCQQWSSNPLTFGAGTKLELKR | 0.33 | – |
| Hu6G10 scFv (scFv, V domains shown) VH: QVQLVQSGAEVKKPGATVKISCKASGYSFTGYFMHWVRQAPGKGLEWIGRINPYNGDIIYNQNFKDRATLTVDKSTSTAYMELSSLRSEDTAVYYCASLFGLYYFDYWGQGTTLTVSS VL: DVVMTQSPSSVSASVGDRVTITCRASQRISNHLNWYQQKPGKAPKRLIYAASSLESGVPSRFSGSGSGTEFTLTISSLQPEDFATYFCLQHNSYPYTFGQGTKVEIKR | – | 0.52 |
| Hu6G11.1 IgG (antibody, V domains shown) VH: QVQLVQSGAEVAKPGASVKMSCKASGYTFTSYWMHWVRQAPGQGLEWIGYINPSTGYTEYNQKFKDRATLTADKSKSTAYMELSSLRSEDTAVYYCARGYFSFAYWGQGTLVTVSS VL: DIVMTQSPSSLSASVRDRVTITCQASHDIKNFLNWFQQKPGKAPKLLVYDASYLQVGVPSRFSASGYGTEFTLTISSLQPEDFATYYCQQANSFPRTFGQGTKVEIKR | 0.101 | – |
| Hu6G11.1 scFv (scFv, V domains shown) VH: QVQLVQSGAEVAKPGASVKMSCKASGYTFTSYWMHWVRQAPGQGLEWIGYINPSTGYTEYNQKFKDRATLTADKSKSTAYMELSSLRSEDTAVYYCARGYFSFAYWGQGTLVTVSS VL: DIVMTQSPSSLSASVRDRVTITCQASHDIKNFLNWFQQKPGKAPKLLVYDASYLQVGVPSRFSASGYGTEFTLTISSLQPEDFATYYCQQANSFPRTFGQGTKVEIKR | – | 0.32 |
| Hu6G11.2 scFv (scFv, V domains shown) VH: QVQLVQSGAEVAKPGASVKMSCKASGYTFTSYWMHWVRQAPGQGLEWIGYINPSTGYTEYNQKFKDRATLTADKSKSTAYMELSSLRSEDTAVYYCARGYFSFAYWGQGTLVTVSS VL: DIVMTQSPSSLSASVRDRVTITCQASHDIKNFLNWFQQKPGKAPKLLVYDASHLQVGVPSRFSASGYGTEFTLTISSLQPEDFATYYCQQANSFPRTFGQGTKVEIKR | – | 0.56 |
| hu6G11 IgG (antibody, V domains shown) VH: QVQLVQSGAEVAKPGASVKMSCKASGYTFTSYWMHWVRQAPGQGLEWIGYINPSTGYTEYNQKFKDRATLTADKSTSTAYMELSSLRSEDTAVYYCARGYFSFAYWGQGTLVTVSS VL: DIVMTQSPSSLSASVRDRVTITCQASHDIKNFLNWFQQKPGKAPKLLVYDASNLQVGVPSRFSASGYGTEFTLTISSLQPEDFATYYCQQANSFPRTFGQGTKVEIKR | 0.531 | – |
| Hu6G11.2 IgG (antibody, V domains shown) VH: QVQLVQSGAEVAKPGASVKMSCKASGYTFTSYWMHWVRQAPGQGLEWIGYINPSTGYTEYNQKFKDRATLTADKSKSTAYMELSSLRSEDTAVYYCARGYFSFAYWGQGTLVTVSS VL: DIVMTQSPSSLSASVRDRVTITCQASHDIKNFLNWFQQKPGKAPKLLVYDASHLQVGVPSRFSASGYGTEFTLTISSLQPEDFATYYCQQANSFPRTFGQGTKVEIKR | 0.048 | – |
| Hu6G9.1 IgG (antibody, V domains shown) VH: QVQLVQSGAEVKKPGASVKMSCKASGYTFTSYWMHWVRQAPGQGLEWVGYINPSTGYTEYNQKFKDRATLTADKSTSTAYMELRSLRSDDTAVYYCARGGNYVDYWGQGTTLTVSS VL: DIQMTQSPSTLSASVGERVTITCRASHGISSWLAWYQQKPGKAPKRLIYAVSTLQTGVPSRFSDSGSGTDLTLTINSLQPEDFATYYCQDLNSYPLSFGGGTKVEIKR | 0.0275 | – |
| hu6G6 IgG (antibody, V domains shown) VH: QVQLVQSGAEVKKPGASVKLSCKASGFNIKDTYMHWVRQAPGQGLEWIGRIDPANGNTKYDPKFQGRATITADTSINTAYLELSRLRSDDTAVYYCASGPNYYGTTWFAYWGQGTTVTVSS VL: EIVLTQSPSTLSASVGDRVTITCRASHGISNYLAWYQQKPGRAPKLLIYKASTLHIGVPSRFSGSGSGTEFALTISSLQPDDFSTYYCQQYNSYLPHTFGQGTRLEIKR | 8.37 | – |
| Hu6G6.2 IgG (antibody, V domains shown) VH: QVQLVQSGAEVKKPGASVKLSCKASGFNIKDTYMHWVRQAPGQGLEWIGRIDPENGNTKYDPKFQGRATITAYKSINRAYLELSRLRSDDTAVYYCASGPNYYGTTWFAYWGQGTTVTVSS VL: EIVLTQSPSTLSASVGDRVTITCRASHGISNYLAWYQQKPGRAPKLLIYKASTLHIGVPSRFSGSGSGTEFALTISSLQPDDFSTYYCQQYNSYLPHTFGQGTRLEIKR | 0.0422 | – |
| Hu6G7.1 IgG (antibody, V domains shown) VH: QVQLVQSGAEVKKPGASVKVSCKASDYSFTDYNIYWVRQTPGQGLEWIGYIDPYNGGTSYNQKFKGRATLTVDKSISTAYMELSRLRSDDTAVYYCALYGYDPDYIDYWGQGTTLTVSS VL: DIVLTQSPASMAVSPGQRVTITCSASSSVSYLHWFQQKPGQSPKLWIYSTSNLASGVPARFSGSGSGTDYTLTINPMEAEDTATYYCQQRSSYPYTFGQGTKLEIKR | 1.19 | – |
